Reference: the Immune Epitope Database (IEDB)

What was measured:
HLA-B*07:02 = assay: IEDB peptide-MHC binding, purified MHC/direct/fluorescence; filed as Kd, often an IC50 or EC50 that approximates it; ≥ and ≤ were set here for values at or beyond the usual limits of such assays
HLA-B*27:05 = assay: as above
HLA-A*24:02 = assay: as above; details: source organism: Influenza A virus (A/quail/Hong Kong/FY298/00(H9N2))
HLA-B*15:09 = assay: as above
HLA-B*18:01 [1] = assay: as above
HLA-A*03:01 = assay: as above
HLA-B*44:02 = assay: as above
HLA-A*02:01 [2] = assay: as above
HLA-B*40:01 = assay: as above
HLA-A*01:01 = assay: as above
HLA-A*69:01 [3] = assay: as above
HLA-B*58:01 = assay: as above
HLA-B*08:01 = assay: as above
HLA-B*46:01 [4] = assay: as above; details: source organism: Influenza A virus (A/quail/Hong Kong/FY298/00(H9N2))
HLA-B*15:01 [5] = assay: as above
HLA-A*68:02 [6] = assay: IEDB peptide-MHC binding, purified MHC/competitive/fluorescence; filed as Kd, often an IC50 or EC50 that approximates it; ≥ and ≤ were set here for values at or beyond the usual limits of such assays; details: source organism: Human immunodeficiency virus 1
HLA-A*02:03 = assay: as above; details: source organism: Human immunodeficiency virus 1
HLA-A*68:02 [7] = assay: IEDB peptide-MHC binding, purified MHC/direct/fluorescence; filed as Kd, often an IC50 or EC50 that approximates it; ≥ and ≤ were set here for values at or beyond the usual limits of such assays; details: source organism: Burkholderia mallei
HLA-B*39:01 [8] = assay: as above; details: source organism: Burkholderia mallei ATCC 23344
HLA-B*15:17 [9] = assay: as above; details: source organism: Burkholderia mallei
HLA-B*48:01 = assay: as above; details: source organism: Burkholderia mallei
HLA-A*11:01 = assay: as above; details: source organism: Burkholderia mallei
HLA-A*26:01 [10] = assay: as above
HLA-B*57:01 [11] = assay: as above; details: source organism: Burkholderia mallei
HLA-A*31:01 = assay: as above; details: source organism: Burkholderia mallei
HLA-A*02:01 [12] = assay: IEDB peptide-MHC binding, purified MHC/competitive/radioactivity; ≥ and ≤ were set here for values at or beyond the usual limits of such assays
HLA-C*08:02 = assay: IEDB peptide-MHC binding, purified MHC/direct/fluorescence; filed as Kd, often an IC50 or EC50 that approximates it; ≥ and ≤ were set here for values at or beyond the usual limits of such assays
HLA-B*39:01 [13] = assay: IEDB peptide-MHC binding, purified MHC/competitive/fluorescence; filed as Kd, often an IC50 or EC50 that approximates it; ≥ and ≤ were set here for values at or beyond the usual limits of such assays
HLA-B*18:01 [14] = assay: as above
HLA-B*51:01 = assay: as above
HLA-A*02:01 [15] = assay: as above
HLA-A*26:01 [16] = assay: as above
HLA-B*57:01 [17] = assay: as above
HLA-A*69:01 [18] = assay: as above; details: source organism: Mus musculus
HLA-B*27:03 = assay: as above
HLA-B*46:01 [19] = assay: as above
HLA-A*26:02 = assay: IEDB peptide-MHC binding, purified MHC/direct/fluorescence; filed as Kd, often an IC50 or EC50 that approximates it; ≥ and ≤ were set here for values at or beyond the usual limits of such assays; details: source organism: Influenza A virus(A/swine/Shandong/fZC/2003(H9N2))
HLA-B*15:17 [20] = assay: IEDB peptide-MHC binding, purified MHC/competitive/fluorescence; filed as Kd, often an IC50 or EC50 that approximates it; ≥ and ≤ were set here for values at or beyond the usual limits of such assays; details: source organism: Homo sapiens
HLA-B*15:01 [21] = assay: as above; details: source organism: Homo sapiens
[22] = source organism: Influenza A virus (A/quail/Hong Kong/FY298/00(H9N2))
[23] = source organism: Burkholderia mallei
[24] = source organism: Burkholderia mallei ATCC 23344

ALTLNTMTK
0.724 µM: Kd (HLA-A*03:01; source organism: Influenza A virus (A/Puerto Rico/8/34/Mount Sinai(H1N1)))
≥ 20 µM: Kd (HLA-B*07:02; [22]) | Kd (HLA-B*27:05; [22]) | Kd (HLA-A*24:02) | Kd (HLA-B*15:09; source organism: Influenza A virus(A/swine/Henan/5/2004(H9N2))) | Kd (HLA-B*18:01 [1]; [22]) | Kd (HLA-B*44:02; [22]) | Kd (HLA-A*02:01 [2]; [22]) | Kd (HLA-B*40:01; [22]) | Kd (HLA-A*01:01; [22]) | Kd (HLA-A*69:01 [3]; [22]) | Kd (HLA-B*58:01; [22]) | Kd (HLA-B*08:01; [22]) | Kd (HLA-B*46:01 [4]) | Kd (HLA-B*15:01 [5]; [22])

EELKSLYNTI
≥ 20 µM: Kd (HLA-A*02:03)
1.78 µM: Kd (HLA-A*68:02 [6])

FEIGNGDAG
≥ 20 µM: Kd (HLA-B*07:02; [23]) | Kd (HLA-B*27:05; [23]) | Kd (HLA-A*68:02 [7]) | Kd (HLA-B*39:01 [8]) | Kd (HLA-B*15:17 [9]) | Kd (HLA-B*15:09; [24]) | Kd (HLA-B*18:01 [1]; [23]) | Kd (HLA-B*48:01) | Kd (HLA-A*03:01; [23]) | Kd (HLA-B*44:02; [23]) | Kd (HLA-A*11:01) | Kd (HLA-A*02:01 [2]; [23]) | Kd (HLA-A*26:01 [10]; [24]) | Kd (HLA-B*40:01; [23]) | Kd (HLA-B*57:01 [11]) | Kd (HLA-A*01:01; [23]) | Kd (HLA-A*69:01 [3]; [23]) | Kd (HLA-B*58:01; [23]) | Kd (HLA-B*08:01; [24]) | Kd (HLA-B*15:01 [5]; [23]) | Kd (HLA-A*31:01)

ILCGTCLIV
0.192 µM: IC50 (HLA-A*02:01 [12]; source organism: Homo sapiens)

IMDKNIIL
21 µM: IC50 (HLA-A*02:01 [12]; source organism: Influenza A virus (A/Puerto Rico/8/1934(H1N1)))

LVDENQSWY
≥ 20 µM: Kd (HLA-C*08:02; source organism: Mus musculus) | Kd (HLA-B*39:01 [13]; source organism: Mus musculus) | Kd (HLA-B*18:01 [14]; source organism: Mus musculus) | Kd (HLA-B*51:01; source organism: Mus musculus) | Kd (HLA-A*02:01 [15]; source organism: Mus musculus) | Kd (HLA-A*26:01 [16]; source organism: Mus musculus) | Kd (HLA-B*57:01 [17]; source organism: Mus musculus) | Kd (HLA-A*69:01 [18]) | Kd (HLA-B*27:03; source organism: Mus musculus) | Kd (HLA-B*46:01 [19]; source organism: Mus musculus)

RLPRIFCSC
1.98 µM: IC50 (HLA-A*02:01 [12]; source organism: Homo sapiens)

SLSHYFTLV
0.0016 µM: IC50 (HLA-A*02:01 [12]; source organism: Trypanosoma cruzi)

TTAKAMEQM
0.002 µM: Kd (HLA-A*26:02)
0.0489 µM: Kd (HLA-A*26:01 [10]; source organism: Influenza A virus (A/shorebird/Delaware Bay/277/2000(H9N7)))

WTDLFDNKV
0.002 µM: Kd (HLA-A*01:01; source organism: Homo sapiens)
≥ 20 µM: Kd (HLA-B*39:01 [13]; source organism: Homo sapiens) | Kd (HLA-B*15:17 [20]) | Kd (HLA-B*18:01 [14]; source organism: Homo sapiens) | Kd (HLA-B*51:01; source organism: Homo sapiens) | Kd (HLA-A*02:01 [15]; source organism: Homo sapiens) | Kd (HLA-A*26:01 [16]; source organism: Homo sapiens) | Kd (HLA-B*57:01 [17]; source organism: Homo sapiens) | Kd (HLA-B*27:03; source organism: Homo sapiens) | Kd (HLA-B*46:01 [19]; source organism: Homo sapiens) | Kd (HLA-B*15:01 [21])
0.254 µM: Kd (HLA-C*08:02; source organism: Homo sapiens)
